Test results from patent publication US20080207488A1, “Method for Detecting Peptides Comprising a Cross-B Structure” (priority 2005, published 2008).

Target: T1, tPA (Homo sapiens, UniProt P00750)
T1 construct: purchased Boehringer-Ingelheim (Actilyse, Alteplase)
Assay: Biacore surface plasmon resonance, binding to immobilized tPA
Settings: Hb-AGE 32, amyloid γ-globulins 62.5, albumin-AGE 3.9 μg ml^−1
Protocol: Binding of cross-β structure conformation containing peptides/proteins was studied using surface plasmon resonance technology with a Biacore 2000 apparatus (Biacore AB, Uppsala, Sweden). A standardized amine coupling procedure was used to couple proteins with F domains to a CM5 chip (Biacore AB, Uppsala, Sweden). First, the dextran surface of the chips was activated by a 35 μl injection with a 1:1 mixture of 0.1 M N-hydroxysuccinimide (NHS) and 0.4 M N-ethyl-N′-(dimethylaminopropyl)carbodiimide (EDC) at a flow rate of 5 μl min.^−1. Then, the proteins were covalently coupled to the activated dextran surface. Remaining activated groups in each of the four flow channels were blocked by injection of 35 μl of 1 M ethanolamine hydrochloride pH 8.5. EDC, NHS and ethanolamine hydrochloride were obtained from Biacore. On one chip, on channels 1 to 4, buffer (reference channel), the soluble extracellular part of receptor for advanced glycation endproducts (sRAGE), tPA and K2P-tPA were immobilized. […] Binding of albumin-AGE was determined with a solution of 3.9 μg ml^−1 albumin-AGE in running buffer. albumin-AGE was filtered on a Millex-GV 0.22 μm filter unit (Millipore). […] Binding of Hb-AGE was also tested after centrifugation for 10 min. at 16,000*g alternative to filtration. tPA activation before and after filtration was assessed with a Plg-activation assay. […]

T1 sequence (P00750 36-562): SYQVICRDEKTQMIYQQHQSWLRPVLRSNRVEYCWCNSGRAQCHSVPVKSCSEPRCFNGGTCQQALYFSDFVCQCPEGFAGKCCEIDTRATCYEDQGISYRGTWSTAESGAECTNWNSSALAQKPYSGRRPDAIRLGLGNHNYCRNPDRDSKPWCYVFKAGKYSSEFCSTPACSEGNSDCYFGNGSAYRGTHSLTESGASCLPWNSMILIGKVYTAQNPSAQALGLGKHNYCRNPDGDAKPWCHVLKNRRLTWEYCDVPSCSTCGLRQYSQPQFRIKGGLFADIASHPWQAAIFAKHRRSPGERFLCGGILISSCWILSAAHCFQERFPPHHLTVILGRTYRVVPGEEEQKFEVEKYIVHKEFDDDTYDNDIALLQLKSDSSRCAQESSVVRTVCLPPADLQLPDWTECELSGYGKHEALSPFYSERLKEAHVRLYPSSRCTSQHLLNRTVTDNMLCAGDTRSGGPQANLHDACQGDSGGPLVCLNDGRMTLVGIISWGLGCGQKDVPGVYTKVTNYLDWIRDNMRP

binding to immobilized tPA: bind
Substance: albumin-AGE: advanced glycation end-product modified bovine serum albumin
